According to article PMC6778029:

B1: MALAT1 hairpin 2515-A (structured_RNA)
RNA: AAUGUGAAGGACUUUCGUAACGGAAGUAAUUCAA
B2: MALAT1 hairpin 2515-m6A (structured_RNA)
RNA: B1 RNA
modifications: m6A at position 11
B3: SMN2exon7 RNA (ssRNA)
RNA: GGUUUUAGACAAAAUCAAAAAGAAGGAAGGUGCUCACAUUCCUUAAAUUAAGGA
B4: WEc RNA (structured_RNA)
RNA: GGGUACGACGGAUAUCGUGGGGGGGGAAAUUGCUUUCGGUUCCGACUCUG

Columns and labels:
hnRNPG wild-type [1] = target: T1, hnRNPG wild-type (Homo sapiens, UniProt P38159 1-391); experiment: spin-down
T1 sequence (P38159 whole entry): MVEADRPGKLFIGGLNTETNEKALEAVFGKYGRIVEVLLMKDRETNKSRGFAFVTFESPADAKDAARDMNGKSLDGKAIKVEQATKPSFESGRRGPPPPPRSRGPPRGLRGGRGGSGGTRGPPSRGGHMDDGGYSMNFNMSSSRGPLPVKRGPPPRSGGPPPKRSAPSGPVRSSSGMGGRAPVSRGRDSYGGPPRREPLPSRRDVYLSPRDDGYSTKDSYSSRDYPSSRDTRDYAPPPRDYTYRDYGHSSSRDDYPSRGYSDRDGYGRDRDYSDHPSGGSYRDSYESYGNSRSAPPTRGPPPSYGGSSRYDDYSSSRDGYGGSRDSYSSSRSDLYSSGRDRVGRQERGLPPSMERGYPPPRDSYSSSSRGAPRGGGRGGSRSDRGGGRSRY

hnRNPG RRMmut = hnRNPG RRMmut (Homo sapiens, UniProt P38159 1-391, K9A;F11A;R49A;F51A;F53A); experiment: limited proteolysis protection
hnRNPG RRMmut, sequence (P38159 whole entry K9A/F11A/R49A/F51A/F53A): as the sequence (P38159 whole entry) above, with K9A, F11A, R49A, F51A, F53A counted along it

hnRNPG wild-type [2] = target: T1, hnRNPG wild-type; experiment: limited proteolysis protection

Binder	binding result (hnRNPG wild-type [1])	binding result (hnRNPG RRMmut)	binding result (hnRNPG wild-type [2])
B1	binds	no binding	–
B2	binds	no binding	–
B3	–	no binding	binds
B4	–	no binding	binds
